Results on 5 molecules are retold here after patent US20050113293A1.

Experiment [1] deals with binding site for [125I]AAP10 on intact CHO cells (AAP receptor). The experiment can be described thus: in situ displacement of [125I]AAP10 on intact CHO cells.
Experiment [2] has the same target. The experiment can be described thus: cell-based or functional assay.
The target in experiment [3] is binding site for [125I]AAP10 in murine heart tissue preparations (AAP receptor) (mouse). Briefly: displacement of 0.8 nM [125I]AAP10, murine heart filtrate.
Experiment [4] shares this target. The experiment can be described thus: displacement of 0.8 nM [125I]AAP10, murine heart membranes.

[ ]: non-standard residue; d: D form. Hyp = O=C(O)[C@@H]1C[C@@H](O)CN1

As for “Ac-D-Tyr(3,5-di-I)-D-Pro-D-Hyp-Gly-D-Ala-Gly-NH2 (Compound 24) (peptide)”, the IC50 in experiment [1] came out at 65 nM.

In experiment [2], “Ac-D-Tyr-D-Pro-D-4Hyp-Gly-D-Ala-Gly-NH2 (Compound 2) (peptide)” displayed an Inhibition of forskoline stimulated cAMP formation in CHO cells, EC50 of 6.2 nM. Moreover, the concentration for half-maximal inhibition (IC50) amounted to 3.6 nM in experiment [3], 0.5 nM in experiment [1] and 1.2 nM in experiment [4].

B1: ASAL(mono-iodo)-Pro-Hyp-Gly-Ala-Gly-NH2 (Compound 32) (peptide)
peptide: {ASAL(mono-iodo)}-P[Hyp]GAG-NH2
On to B1, for which, in experiment [1], the IC50 worked out at 0.5 nM.

B2: H-Gly-Pro-Hyp-Gly-Ala-Gly-OH (AAP) (peptide)
peptide: H-GP[Hyp]GAG-OH
SMILES: C[C@H](NC(=O)CNC(=O)[C@@H]1C[C@@H](O)CN1C(=O)[C@@H]1CCCN1C(=O)CN)C(=O)NCC(=O)O
As to B2, the Inhibition of forskoline stimulated cAMP formation in CHO cells, EC50 in experiment [2] was 53 nM. In addition, the 50% inhibitory concentration (IC50) in experiment [3] was found to be 1.2 nM; in experiment [1], 0.8 nM.

B3: H-Gly-Ala-Gly-Hyp-Pro-Tyr-NH2 (AAP10) (peptide)
peptide: H-GAG[Hyp]PY-NH2
As to B3, the Inhibition of forskoline stimulated cAMP formation in CHO cells, EC50 in experiment [2] stood at 11 nM. The values for the half-maximal inhibitory concentration (IC50) in experiment [3] and in experiment [1] were 1.2 nM and 130 nM, respectively.
